According to PMC8563363:

Key:
Test in all cases: EMSA
[1] = biological target: T1, SMC3 head (Halo-SMC3HD-SCC1(Nt)) (Homo sapiens, UniProt Q9UQE7 1-251+=GGGGG+956-1216+=[…]+O60216:2-75, internal_change)
T1 sequence: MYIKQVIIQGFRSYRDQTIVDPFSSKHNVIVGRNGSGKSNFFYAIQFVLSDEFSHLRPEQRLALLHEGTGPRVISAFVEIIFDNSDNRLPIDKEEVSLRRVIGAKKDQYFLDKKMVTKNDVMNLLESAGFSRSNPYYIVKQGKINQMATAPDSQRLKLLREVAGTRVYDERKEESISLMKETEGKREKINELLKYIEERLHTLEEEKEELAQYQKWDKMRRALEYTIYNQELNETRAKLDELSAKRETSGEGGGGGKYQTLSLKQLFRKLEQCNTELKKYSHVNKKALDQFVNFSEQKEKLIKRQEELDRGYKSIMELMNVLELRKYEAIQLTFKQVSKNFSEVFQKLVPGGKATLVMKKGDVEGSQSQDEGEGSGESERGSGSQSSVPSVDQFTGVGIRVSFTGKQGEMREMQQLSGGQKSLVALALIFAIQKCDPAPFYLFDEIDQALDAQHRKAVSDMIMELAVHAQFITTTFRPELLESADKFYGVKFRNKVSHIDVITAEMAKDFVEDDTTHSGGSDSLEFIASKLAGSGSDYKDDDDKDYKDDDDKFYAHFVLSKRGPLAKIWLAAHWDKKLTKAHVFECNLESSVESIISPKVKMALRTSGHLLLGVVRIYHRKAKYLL

[2] = biological target: T2, SMC1 head 4E (Homo sapiens, UniProt Q14683;O60216 1-200+=GGGGG+1030-1233;531-631, K52E;R57E;K59E;R62E;internal_change)
T2 sequence 1: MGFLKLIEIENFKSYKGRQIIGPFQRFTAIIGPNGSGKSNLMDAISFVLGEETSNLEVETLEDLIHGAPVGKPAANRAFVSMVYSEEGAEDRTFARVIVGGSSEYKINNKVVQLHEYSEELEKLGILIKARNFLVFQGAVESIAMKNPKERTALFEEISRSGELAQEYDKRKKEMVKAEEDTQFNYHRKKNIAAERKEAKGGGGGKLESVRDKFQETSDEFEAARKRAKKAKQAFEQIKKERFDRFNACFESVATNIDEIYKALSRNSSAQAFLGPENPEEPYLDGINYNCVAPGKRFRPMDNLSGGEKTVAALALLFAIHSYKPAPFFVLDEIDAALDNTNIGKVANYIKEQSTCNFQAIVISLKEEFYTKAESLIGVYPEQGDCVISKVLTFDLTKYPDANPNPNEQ
T2 sequence 2: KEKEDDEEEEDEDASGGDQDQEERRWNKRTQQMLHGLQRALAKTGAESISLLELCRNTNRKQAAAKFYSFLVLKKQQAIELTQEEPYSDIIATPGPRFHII

[3] = biological target: T3, deltaN-STAG1/SCC1(int) (Homo sapiens, UniProt Q8WVM7;O60216 71-1258;281-420)
T3 sequence 1: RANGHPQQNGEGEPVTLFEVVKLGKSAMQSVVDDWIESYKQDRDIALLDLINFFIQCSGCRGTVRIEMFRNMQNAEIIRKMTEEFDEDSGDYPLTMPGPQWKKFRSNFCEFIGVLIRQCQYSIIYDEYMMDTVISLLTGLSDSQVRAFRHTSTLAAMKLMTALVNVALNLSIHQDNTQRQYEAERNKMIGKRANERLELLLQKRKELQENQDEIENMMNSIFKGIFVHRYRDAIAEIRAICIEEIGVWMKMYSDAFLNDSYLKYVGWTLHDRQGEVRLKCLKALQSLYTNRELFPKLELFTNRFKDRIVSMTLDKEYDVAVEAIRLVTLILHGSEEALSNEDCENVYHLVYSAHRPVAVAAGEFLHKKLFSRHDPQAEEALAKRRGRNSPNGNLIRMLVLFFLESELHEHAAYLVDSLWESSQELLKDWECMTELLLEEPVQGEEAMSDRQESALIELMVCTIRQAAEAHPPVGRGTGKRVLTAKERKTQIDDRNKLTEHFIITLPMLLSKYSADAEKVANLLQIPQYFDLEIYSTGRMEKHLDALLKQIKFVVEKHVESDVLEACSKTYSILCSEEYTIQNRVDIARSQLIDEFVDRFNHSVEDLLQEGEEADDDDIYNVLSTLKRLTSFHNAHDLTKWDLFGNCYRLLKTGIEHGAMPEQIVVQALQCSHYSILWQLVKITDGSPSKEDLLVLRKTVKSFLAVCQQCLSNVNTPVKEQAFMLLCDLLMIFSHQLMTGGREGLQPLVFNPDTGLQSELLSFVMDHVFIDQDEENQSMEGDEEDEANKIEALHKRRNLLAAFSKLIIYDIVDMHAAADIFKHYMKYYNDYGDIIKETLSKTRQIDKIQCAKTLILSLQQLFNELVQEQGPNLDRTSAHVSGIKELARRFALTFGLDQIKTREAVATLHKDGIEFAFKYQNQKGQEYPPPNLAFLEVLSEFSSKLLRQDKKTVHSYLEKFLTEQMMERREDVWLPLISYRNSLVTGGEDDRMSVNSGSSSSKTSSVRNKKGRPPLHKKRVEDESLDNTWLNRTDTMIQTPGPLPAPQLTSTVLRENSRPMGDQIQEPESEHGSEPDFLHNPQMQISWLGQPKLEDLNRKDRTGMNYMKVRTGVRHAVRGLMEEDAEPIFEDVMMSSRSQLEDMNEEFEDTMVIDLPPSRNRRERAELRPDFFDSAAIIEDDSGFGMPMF
T3 sequence 2: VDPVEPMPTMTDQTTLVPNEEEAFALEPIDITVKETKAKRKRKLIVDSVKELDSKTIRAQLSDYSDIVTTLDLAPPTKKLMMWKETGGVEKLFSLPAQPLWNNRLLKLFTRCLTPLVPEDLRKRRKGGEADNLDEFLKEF

[4] = biological target: deltaN-NIPBL2A (Homo sapiens, UniProt Q6KC79 1-21+1041-2804, R1867A;K1870A;internal_change)
[5] = biological target: hinge (SMC1-SMC3) (Homo sapiens, UniProt Q9UQE7;Q14683 484-696;461-685)
Chain of hinge (SMC1-SMC3) (Q9UQE7 484-696, chain 1 of 2): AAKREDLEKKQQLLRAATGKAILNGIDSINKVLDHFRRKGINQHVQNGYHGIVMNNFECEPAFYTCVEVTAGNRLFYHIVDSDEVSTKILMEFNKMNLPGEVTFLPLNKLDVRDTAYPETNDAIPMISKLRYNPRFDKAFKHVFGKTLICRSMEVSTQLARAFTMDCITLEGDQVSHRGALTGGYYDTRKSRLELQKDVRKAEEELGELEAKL
Chain of hinge (SMC1-SMC3) (Q14683 461-685, chain 2 of 2): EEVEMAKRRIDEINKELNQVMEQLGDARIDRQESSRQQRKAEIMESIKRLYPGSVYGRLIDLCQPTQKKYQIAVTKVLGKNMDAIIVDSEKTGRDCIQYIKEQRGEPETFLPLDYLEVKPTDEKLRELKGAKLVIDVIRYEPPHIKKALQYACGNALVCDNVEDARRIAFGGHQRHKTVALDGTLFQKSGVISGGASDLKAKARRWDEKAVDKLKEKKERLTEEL

B1: 40 bp dsDNA EMSA probe (dsDNA)
DNA 1: GCGGGTAATCCAGAGCCAGACGAGCACTACGAACAACTAA
DNA 2: TTAGTTGTTCGTAGTGCTCGTCTGGCTCTGGATTACCCGC
Does B1 bind [1]?
Result: binds

Does B1 bind [2]?
Result: no binding

Does B1 bind [3]?
Result: binds

Does B1 bind [4]?
Result: no binding

Does B1 bind [5]?
Result: binds
